The record followed here is patent US5686073.

Test [1] addresses dystrophin (rabbit). Nature of the test: co-immunoprecipitation with dystrophin on XIXC2-Sepharose from untreated complex.
For test [2], the target named is dystrophin (rabbit). Kind of test: co-immunoprecipitation with dystrophin on XIXC2-Sepharose from alkaline-treated complex.
For test [3], the target named is 50 kDa dystrophin-associated glycoprotein (rabbit). Nature of the test: co-immunoprecipitation with the 50 kDa glycoprotein on IVD31-Sepharose from untreated complex.
Test [4] shares this target. Kind of test: co-immunoprecipitation with the 50 kDa glycoprotein on IVD31-Sepharose from alkaline-treated complex.

59 kDa dystrophin-associated protein: the percent immunoprecipitated in the test with dystrophin (rabbit) [1] came to 96%; in the test with dystrophin (rabbit) [2], 51%; in test [3] it was 96%.

The molecule dystrophin gave a percent immunoprecipitated in test [3] of 99%.

Consider “156 kDa dystrophin-associated glycoprotein (from UniProt Q28685)”, for which the results for the percent immunoprecipitated (in the test with dystrophin (rabbit) [1]; in test [3]) were 63% and 85%, respectively.

For the molecule “43 kDa dystrophin-associated glycoprotein (from UniProt Q28685)”, the percent immunoprecipitated (with dystrophin (rabbit) [1]; in test [3]; in test [4]) was 96% in each case.

For the molecule “35 kDa dystrophin-associated glycoprotein”, the percent immunoprecipitated (with dystrophin (rabbit) [1]; in test [3]; in test [4]) was 96% throughout.

B1: 50 kDa dystrophin-associated glycoprotein (protein)
chain: GPGGTEAQQTTLYPLVGRVFVHTLEPASFLHLPEHAAPATIPVTYHAHLQGHPDLPRWLRYTQRSPHHPGFLYGAATPEDRGRQVIEVTAYNRDSFDTAGQSLVLLIRDPEGSPLPYQTEFLVRSHDVEEVLPPTPASHFLTALAGLWEPGELKLLNITSALDRGGRVPLPIGGQKEGVYIKVGSASPFSTCLKMVASPDSHARCARGQPPLLSCYDTLAPHFRVDWCNVSLVDTSVPEPVDEVPTPGDGILEHDPFFCPPTEATARDFLADALVTLLVPLLVALLLALLLAYIMCCRREGRLKRDLATSDIQMVHHCTIHENTEELRQMAASREVPRPLFPLPMFNVRTGERMPPRVDSAQVPLILDQH
As to B1, the percent immunoprecipitated in the test with dystrophin (rabbit) [1] was found to be 96%.
